Experimental findings from patent US20180185504A1 (Regeneron, published 2018) are described below.

To fix the notation:
B1: H1H6765P (antibody, human IgG1, V domains shown)
VH: EVQLVESGGGVVRPGGSLRLSCVGSGFSFDDHGMNWVRQGPGKGLEWVSGFNWNGGSTNYAESVKGRFTISRDNARNSLFLQMNSLRAEDTALYYCVRGRSGWFNDAFDVWGPGTMVTVSS
VL: EIVLTQSPGTLSLSPGERATLSCRASQTINSNYLAWYRQKPGQTPRLLIYGTSSRATGIPDRFSGSGSGTDFSLTISRLEPEDFAVFYCQQYAGLPTFGPGTKVDIK
notes: Human IgG1 Fc (H1H)
B2: H1H6781P (antibody, human IgG1, V domains shown)
VH: EVQLVESGGDLVQPGESLRLSCTASGFTFNSYEMNWVRQAPGKGLEWVSYISSSGGTKYYVDSVKGRFTISRDNAKKSLYLQMNSLRADDTALYYCARLNGVDVFDIWGQGTMVTVSS
VL: DIQMTQSPSSLSASVGDRVTITCRASQDIFNYLAWFQQKPGKVPELLISAASTLQSGVPSRFSGSGSGTYFTLTISSLQPEDIATYYCQRYNSAPLTFGGGTKVEIK
notes: Human IgG1 Fc (H1H)
B3: H1H6975N (antibody, human IgG1, V domains shown)
VH: EVHLVESGGGLVQPGGSLRLSCAASGFTFSSYEMNWVRQTPGKGLEWISHISSRSVIIYYADSVKGRFTISRDNAKNSLFLQMNSLRAEDTAVYFCAGITIFGIPEYWGQGTLVTVSS
VL: EIVLTQSPATLSLSPGERATLSCRASQSVSSYFAWYQQKPGQAPRLLIYDASSRATGIPTRFSGSGSGTDFTLTISSLEPEDFAVYYCQQRSSWPITFGQGTRLEIK
notes: Tested with human IgG1 Fc (H1H); also called H2M6975N
B4: H1H6762P (antibody, human IgG1, V domains shown)
VH: QVQLVESGGGVVQPGRSLRLSCAASGFTFSHYGMVWVRQPPGKGLEWVALISFDGTTKYYADSVKGRFTISRDNSKNTLYLQMNSLRAEDTAVYFCVGAIAAAAFDLWGRGTLVTVSS
VL: EIVMTQSPATLSVSPGERATLSCRASQSVSSDLAWYQQKPGQAPRLLIYSASARATGIPARFTGSGSGTDFTLTISSLQSEDFAVYYCQQYNNWPMYTFGQGTKLEIK
notes: Human IgG1 Fc (H1H)
B5: H1H6966N (antibody, human IgG1, V domains shown)
VH: QVQLVQSGAEVQKPGASVKVSCKVSGYTLTALSIHWVRQAPGKGLEWMGNFDPGDGETIHAQKFQGRVTMTGDTSTDTAYMELSSLRSEDTAVYYCVGVTFDYWGQGTLVTVSS
VL: EIVMTQSPATLSVSPGERATLSCRASQSVASNLAWYQQKPGQAPRLLLYGASTRATGIPARFSGSGSGTEFTLTISSLQSEDFALYYCQHYNNWPLTFGGGTKVEIK
notes: Tested with human IgG1 Fc (H1H); also called H2M6966N
B6: H1H6967N (antibody, human IgG1, V domains shown)
VH: EVQLVESGGDLVHPGRSLRLSCAASGFPFDEYAMHWVRQVPGKGLEWVSGISWSNNNIGYADSVKGRFTISRDNAKNSLYLQMNSLRPEDTAFYYCAKSGIFDSWGQGTLVTVSS
VL: B5 VL with A30S, S31R, N32D, L48I, Y49H, T69A, T74I, L85V, H90Q
notes: Tested with human IgG1 Fc (H1H); also called H2M6967N
B7: H1H6774P (antibody, human IgG1, V domains shown)
VH: EVQLVESGGGLAQPGGSLRLSCVASGFTFSTYWMSWVRQAPGKGLDWVGNIKQDGSEQNYVDSVRGRFTISRDNAKNSLFLQMNSLRAEDTGVYYCATLLTKGDYWGQGTLVTVSS
VL: DIQMTQSPSSLSASVGDSVTITCRASQDISNYLDWFQQKPGKAPKSLIYAASILQGGVPSRFSGSGYGTDFTLTISSLQPEDFATYYCRQYKTYPFTFGPGTKVDIK
notes: Human IgG1 Fc (H1H)
B8: H1H6976N (antibody, human IgG1, V domains shown)
VH: EVQLLESGGGFVQPGGSLRLSCAASGFTFSSYAMSWVRQAPGKGLEWVSIISSNGRYTYYADSVKGRFTISRDNSKNTLYLQMNSLRAEDTAVYYCATVTGDWFDPWGQGTLVTVSS
VL: DIQLTQSPSFLSASVGDRVTITCWASQDIDISLAWYQQKPGKAPKLLIYAASTLQSGVPSKFSGSGSGTDFTLTISSLQPEDFSTYYCQQLNSYPITFGQGTRLDIK
notes: Tested with human IgG1 Fc (H1H); also called H2M6976N

Changes are numbered by the printed parent chain. In names and notes the source's numbering stands.

For one test, the target named is T1, macaca fascicularis (mf) PRLR.mmh (soluble monomeric monkey PRLR) (Macaca fascicularis).
T1 construct: called soluble monomeric PRLR protein
T1 chain: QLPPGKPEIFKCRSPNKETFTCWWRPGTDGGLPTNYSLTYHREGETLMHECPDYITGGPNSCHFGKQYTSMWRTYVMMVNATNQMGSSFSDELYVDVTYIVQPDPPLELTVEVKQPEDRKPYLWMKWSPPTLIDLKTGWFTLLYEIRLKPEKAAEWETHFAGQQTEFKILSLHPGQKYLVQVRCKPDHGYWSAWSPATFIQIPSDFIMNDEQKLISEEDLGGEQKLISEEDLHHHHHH
The test is described as follows: SPR Biacore, 25 C, mAb capture. How it is done: (§1) Measurements were conducted on a T200 Biacore instrument. Kinetic association (kₐ) and dissociation (kd) rate constants were determined by processing and fitting the data to a 1:1 binding model using Scrubber 2.0 curve fitting software.
A general note: SPR reads the build-up and loss of mass on a sensor chip optically.
With B1, the Kd (commonly the constant that tells how readily two partners part at equilibrium) came to 0.254 nM; the T½ is 1.43 h; the koff (commonly the rate constant with which the complex falls apart) stood at 0.000134 s⁻¹; the association rate constant (kon) – broadly, a measure of how fast the partners come together – is 527000 M⁻¹ s⁻¹.
On the same counts, the results for B2 are 0.986 nM, 1.37 h, 0.000141 s⁻¹ and 143000 M⁻¹ s⁻¹.
Molecule B3 showed a Kd of 1.14 nM, a T½ of 1.47 h, a koff of 0.000131 s⁻¹ and an on-rate constant (kon) of 115000 M⁻¹ s⁻¹.
The molecule B4 yielded a Kd of 0.511 nM, a T½ of 0.917 h, a koff of 0.000208 s⁻¹ and a kon of 408000 M⁻¹ s⁻¹.
As to B5, binding was put at a Kd of 0.416 nM, the T½ stood at 0.593 h, the koff is 0.000325 s⁻¹ and the kon turned out to be 782000 M⁻¹ s⁻¹.
On the same counts, the results for B6 are 3.08 nM, 0.328 h, 0.000585 s⁻¹ and 190000 M⁻¹ s⁻¹.
On the same counts, the results for B7 are 1.77 nM, 0.217 h, 0.000875 s⁻¹ and 495000 M⁻¹ s⁻¹.
On to B8, for which the Kd was 1.75 nM, the T½ stood at 0.237 h, the koff turned out to be 0.000814 s⁻¹ and the kon was found to be 466000 M⁻¹ s⁻¹.

In a further test the target is T2, hPRLR.mmh (soluble monomeric human PRLR) (human).
T2 construct: called soluble monomeric PRLR protein
T2 chain: T1 chain with V76I, T110A, M125I, T158I, I207T
The test is described as follows: SPR Biacore, 25 C, mAb capture. How it is done:
as §1
With B1, the affinity, expressed as Kd, was 0.124 nM; the T½ stood at 1.7 h; the off-rate (koff) stood at 0.000113 s⁻¹; the kon is 907000 M⁻¹ s⁻¹.
On the same counts, the results for B2 are 0.61 nM, 1.52 h, 0.000127 s⁻¹ and 208000 M⁻¹ s⁻¹.
With B3, the Kd was determined as 0.49 nM, the T½ amounted to 2.62 h, the koff is 7.35e-05 s⁻¹ and the kon is 150000 M⁻¹ s⁻¹.
On the same counts, the results for B4 are 0.259 nM, 1.07 h, 0.000179 s⁻¹ and 692000 M⁻¹ s⁻¹.
In the case of B5, the affinity, expressed as Kd, was 0.302 nM; the T½ was 0.748 h; the koff came out at 0.000257 s⁻¹; the kon was 852000 M⁻¹ s⁻¹.
B6 registered a dissociation constant Kd of 1.35 nM, a T½ of 0.58 h, a koff of 0.000332 s⁻¹ and a kon of 246000 M⁻¹ s⁻¹.
On the same counts, the results for B7 are 1.14 nM, 0.233 h, 0.000818 s⁻¹ and 715000 M⁻¹ s⁻¹.
In turn, B8 had an equilibrium dissociation constant (Kd) of 1.59 nM, a T½ of 0.223 h, a koff of 0.000864 s⁻¹ and a kon of 544000 M⁻¹ s⁻¹.

A further test addresses T3, hPRLR.mFc (soluble dimeric human PRLR) (human).
T3 construct: dimeric PRLR construct
T3 chain: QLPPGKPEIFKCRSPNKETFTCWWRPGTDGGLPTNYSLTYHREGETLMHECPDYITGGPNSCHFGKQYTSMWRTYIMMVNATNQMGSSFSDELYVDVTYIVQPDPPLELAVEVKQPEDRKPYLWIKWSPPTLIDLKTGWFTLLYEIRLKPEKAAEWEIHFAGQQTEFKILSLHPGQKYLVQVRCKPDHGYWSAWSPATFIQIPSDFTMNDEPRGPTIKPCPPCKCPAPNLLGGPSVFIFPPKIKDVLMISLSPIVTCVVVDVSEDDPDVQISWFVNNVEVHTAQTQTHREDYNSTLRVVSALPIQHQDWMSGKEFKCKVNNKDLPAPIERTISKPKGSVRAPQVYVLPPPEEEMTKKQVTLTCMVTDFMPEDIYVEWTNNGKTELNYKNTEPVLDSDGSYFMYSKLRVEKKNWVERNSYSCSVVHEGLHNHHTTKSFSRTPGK
Description: SPR Biacore, 25 C, mAb capture. How it is done: as §1
Molecule B1 returned a Kd of 0.0392 nM, a T½ of 5.65 h, a koff of 3.41e-05 s⁻¹ and a kon of 869000 M⁻¹ s⁻¹.
In turn, B2 registered a Kd of 0.236 nM, a T½ of 3.18 h, a koff of 6.05e-05 s⁻¹ and a kon of 257000 M⁻¹ s⁻¹.
Regarding B3, binding was put at a Kd of 0.0684 nM, the T½ was determined as 9.8 h, the off-rate (koff) stood at 1.97e-05 s⁻¹ and the on-rate constant (kon) was 287000 M⁻¹ s⁻¹.
B4 came in with a Kd of 0.0992 nM, a T½ of 2.98 h, a koff of 6.45e-05 s⁻¹ and a kon of 651000 M⁻¹ s⁻¹.
B5 displayed a dissociation constant Kd of 0.0439 nM, a T½ of 4.71 h, an off-rate (koff) of 4.08e-05 s⁻¹ and an on-rate constant (kon) of 931000 M⁻¹ s⁻¹.
On to B6, for which binding was put at a Kd of 0.11 nM, the T½ stood at 4.32 h, the off-rate constant (koff) amounted to 4.45e-05 s⁻¹ and the kon came to 407000 M⁻¹ s⁻¹.
On the same counts, the results for B7 are 0.112 nM, 2.15 h, 8.94e-05 s⁻¹ and 798000 M⁻¹ s⁻¹.
Take B8: binding was characterised by a dissociation constant (Kd) of 0.0906 nM, the T½ stood at 1.91 h, the off-rate (koff) is 0.000101 s⁻¹ and the kon was determined as 1.12e+06 M⁻¹ s⁻¹.
